Data published in patent publication US20030049702A1 (BURNHAM INSTITUTE, published 2003).

Legend:
Test in all cases: GST pull-down of in vitro translated 35S-labeled protein, autoradiography; '-' = no interaction
[1] = molecular target: T1, TNF-RI (in vitro translated, 35S-labeled) (human, UniProt P19438 1-455, limits assumed)
T1 construct: also called TNFR1
T1 sequence (looked up): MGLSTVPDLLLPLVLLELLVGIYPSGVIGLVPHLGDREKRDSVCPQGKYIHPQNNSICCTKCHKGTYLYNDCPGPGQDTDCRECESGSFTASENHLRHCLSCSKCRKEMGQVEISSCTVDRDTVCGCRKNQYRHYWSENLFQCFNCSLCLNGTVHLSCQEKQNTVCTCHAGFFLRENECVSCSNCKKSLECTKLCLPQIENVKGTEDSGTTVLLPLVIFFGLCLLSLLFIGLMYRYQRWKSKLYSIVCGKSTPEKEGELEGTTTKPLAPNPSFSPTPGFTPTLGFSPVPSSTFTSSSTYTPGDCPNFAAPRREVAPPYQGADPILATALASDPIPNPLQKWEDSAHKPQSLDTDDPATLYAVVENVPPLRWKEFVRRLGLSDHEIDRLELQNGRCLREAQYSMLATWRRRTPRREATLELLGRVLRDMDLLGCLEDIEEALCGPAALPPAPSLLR

[2] = molecular target: c-Flip (in vitro translated, 35S-labeled) (human, UniProt O15519 1-480)
[3] = molecular target: RAIDD (in vitro translated, 35S-labeled) (human, UniProt P78560 1-199)
[4] = molecular target: Dr-5 (in vitro translated, 35S-labeled) (human, UniProt O14763 1-440, limits assumed)
[5] = molecular target: T2, RIP (in vitro translated, 35S-labeled) (human, UniProt Q13546 1-671, limits assumed)
T2 sequence (looked up): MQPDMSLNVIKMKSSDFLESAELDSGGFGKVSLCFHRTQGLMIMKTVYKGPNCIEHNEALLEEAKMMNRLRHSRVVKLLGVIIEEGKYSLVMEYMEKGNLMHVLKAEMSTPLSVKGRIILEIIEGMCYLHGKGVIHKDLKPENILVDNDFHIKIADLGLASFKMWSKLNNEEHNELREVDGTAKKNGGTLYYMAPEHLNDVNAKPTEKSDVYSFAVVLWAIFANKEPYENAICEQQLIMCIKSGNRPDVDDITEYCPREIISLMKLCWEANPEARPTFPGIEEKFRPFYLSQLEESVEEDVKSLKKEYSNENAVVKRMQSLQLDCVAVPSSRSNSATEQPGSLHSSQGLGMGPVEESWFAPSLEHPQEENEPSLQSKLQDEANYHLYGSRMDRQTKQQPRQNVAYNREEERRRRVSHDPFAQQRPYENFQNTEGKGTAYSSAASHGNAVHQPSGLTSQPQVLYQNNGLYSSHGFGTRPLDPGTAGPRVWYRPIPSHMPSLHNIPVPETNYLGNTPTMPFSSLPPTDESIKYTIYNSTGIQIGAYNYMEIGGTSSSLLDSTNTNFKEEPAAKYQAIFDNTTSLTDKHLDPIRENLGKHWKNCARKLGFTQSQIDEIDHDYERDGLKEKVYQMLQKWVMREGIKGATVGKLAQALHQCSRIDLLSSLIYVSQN

[6] = molecular target: T3, Fas (in vitro translated, 35S-labeled) (human, UniProt P25445 1-335, limits assumed)
T3 construct: also called Fas [CD95]
T3 sequence (looked up): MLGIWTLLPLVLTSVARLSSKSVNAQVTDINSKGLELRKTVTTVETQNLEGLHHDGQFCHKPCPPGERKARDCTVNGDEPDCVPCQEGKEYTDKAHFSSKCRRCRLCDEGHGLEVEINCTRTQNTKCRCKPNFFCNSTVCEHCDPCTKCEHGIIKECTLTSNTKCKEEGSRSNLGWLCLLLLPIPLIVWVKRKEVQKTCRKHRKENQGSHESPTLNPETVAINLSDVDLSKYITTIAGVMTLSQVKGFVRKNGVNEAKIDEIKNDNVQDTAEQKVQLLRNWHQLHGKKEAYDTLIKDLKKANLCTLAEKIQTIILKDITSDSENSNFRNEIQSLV

[7] = molecular target: Dr-4 (in vitro translated, 35S-labeled) (human, UniProt O00220 1-468, limits assumed)
[8] = molecular target: T4, FADD (in vitro translated, 35S-labeled) (human, UniProt Q13158 1-208)
T4 sequence (looked up): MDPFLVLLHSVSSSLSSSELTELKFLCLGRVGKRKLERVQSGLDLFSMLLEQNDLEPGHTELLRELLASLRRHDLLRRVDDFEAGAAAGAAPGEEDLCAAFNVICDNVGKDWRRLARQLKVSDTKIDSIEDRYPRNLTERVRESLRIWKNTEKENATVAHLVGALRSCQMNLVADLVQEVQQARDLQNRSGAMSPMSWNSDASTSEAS

Measured: binding result

Sequence of RAIDD (in vitro translated, 35S-labeled) (P78560 whole entry): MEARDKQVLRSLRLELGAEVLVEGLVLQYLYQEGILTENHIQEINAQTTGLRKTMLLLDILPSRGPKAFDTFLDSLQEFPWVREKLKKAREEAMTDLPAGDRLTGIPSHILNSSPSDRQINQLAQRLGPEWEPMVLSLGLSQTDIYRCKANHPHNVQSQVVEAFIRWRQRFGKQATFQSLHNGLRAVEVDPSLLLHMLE
Sequence of c-Flip (in vitro translated, 35S-labeled) (O15519 whole entry): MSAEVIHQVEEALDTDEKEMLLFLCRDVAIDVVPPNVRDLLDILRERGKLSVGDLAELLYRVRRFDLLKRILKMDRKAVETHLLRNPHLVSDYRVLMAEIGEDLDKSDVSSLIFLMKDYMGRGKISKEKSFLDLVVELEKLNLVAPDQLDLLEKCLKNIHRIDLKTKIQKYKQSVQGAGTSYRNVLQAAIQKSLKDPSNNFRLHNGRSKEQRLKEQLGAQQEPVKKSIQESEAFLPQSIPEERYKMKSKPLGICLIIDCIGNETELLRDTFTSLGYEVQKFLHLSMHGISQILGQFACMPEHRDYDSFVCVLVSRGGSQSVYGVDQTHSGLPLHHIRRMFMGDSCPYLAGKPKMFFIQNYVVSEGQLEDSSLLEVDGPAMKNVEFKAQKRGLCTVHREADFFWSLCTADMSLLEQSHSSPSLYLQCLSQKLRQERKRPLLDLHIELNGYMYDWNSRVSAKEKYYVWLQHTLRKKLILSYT

B1: GST-CD40 (cytosolic domain) (other, UniProt P25942 216-277, looked up)
chain: KKVAKKPTNKAPHPKQEPQEINFPDDLPGSNTAAPVQETLHGCQPVTQEDGKESRISVQERQ
notes: domain: cytosolic domain; Control fusion protein; not shown: glutathione S-transferase
no binding: all assays above
